Reference: the nanobody polyreactivity screen of Harvey et al. (2022)

experiment: yeast display, Sf9 membrane polyspecificity reagent, FACS + sequencing; frameworks hold sequencing errors
How it was run: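 Using colony PCR, genes from sorted yeast display clones were amplified, then sequenced on MiSeq at 2 × 250 and filtered by CDR length. The clones had been stained with 10% biotinylated, detergent-solubilized Sf9 membrane reagent for 1 hour at 4 °C and sorted by FACS into low and high (top ~1%) gates on anti-HA and streptavidin fluorescence. Polyreactivity labels come from the gate of origin.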

| Sequence | polyreactivity (PSR sort gate) |
| --- | --- |
| QVQLVESGGGLVQAGGSLRLSCAASGRTFGTYAMGWYRQAPGKERELVAAISRRGGTTYYADSVKGRFTISRDNAKNTVYLQMNSLKPEDTAVYYCARASWSITTVLSTMDYWGQGTQVTVSS | high polyreactivity |
| QVQLVESGGGLVQAGGSLRLSCAASGSIFRIYAMGWYRQAPGKERELVAAISFSTGSRTYYADSVKGRFTISRDNAKNTVYLQMNSLKPEDTAVFYCNAESYYDYNYWGQGTQVTVSS | low polyreactivity |
| QVQLVESGGGLVQAGGSLRLSCDASGRTFYANDMGWYRQAPGKERELVAAISSSVTSTHYADSVKGRFTISRDNAKNTVYLQMNSLKPEDTAVYYCNKDPIREVQPPGPSEMDYWGQGTQVTVSS | low polyreactivity |
| QVQLVESGGGLVLAGGSLRLSCAASGFTFRKNAMGWYRQARGKERELVAAINSSGGSTYYADSVKGRFTISRDNAKNTVYLQMNSLKPEDTAVFYCNAVGRSLARPRGDYWGQGTQVTVSS | high polyreactivity |
| QVQLVESGGGLVQAGGSLRLSCAASGFTFNYYTMGWYRQAPGKERELVAAISGSGVSTYYADSVKGRFTISRDNAKNTVYLQMNSLKPEDTAVYYCNKLFGIYWGQGTQVTVSS | high polyreactivity |
| QVQLVESGGGLVPAGGSLRLSCAASGRTFRFNAMGWYRQAPGKERELVAAITKSSGSTDYADSVKGRFTISRDNAKNTVYLQMNSLKPEDSAVYYCAVRIFVPYYSDWSFPTQYNYWGQGTQLTVSS | high polyreactivity |
| QGQLVESGGGLVQAGGSLRLSCAASGFIFRYYTMGWYRQAPGKERELVAAITSRGGSTYYADSVKGRFTISRDNAKNTFYLQMNSLKPEDTAVYYCATTRWGYEYWGQGTQVTVSS | high polyreactivity |
| QVQLVESGGGLVQAGGSLRLSCAASGRIFDEYALGWYRQAPGKEREFVAAITYSAGSTYYADSVKGRFTISRDNAKNTVYLQMNSLKPEDTAVYDCAADRYYWWWYTYNYWGQGTQVTVSS | low polyreactivity |
| QVQLVESGGGLVQAGGSLRLSCAASGSTFGRYAMGWYRQAPGKERELVAAISESDGSTYYADSVKGRFTISRDNAKNTVYLQMNSLKPEDTAVYYCAAEWTHYWWYQYDYWGQGTQVTVSS | high polyreactivity |
| QVQLVESGGGLVQAGGSLSLSCAASGFILDYNTKGWYRQAPGKEREVVAAISSSGDTTYYADSVKGRFTISRDNAKYTVYLQMNSLKPEDTAVYYCAREYGDGYEYWVQGTQVTVSS | low polyreactivity |
| QVQLQESRGGLVQAGGSLCLSCAASGTIFIDGDMGWYRQAPGKEREFVAAIKPGGSAYYADSVKGRLPLAAITHTVYLQMNSLKPEDTAVYYCAAKLFDVYGYYYWGQGTQVTLSS | low polyreactivity |
| QVQLVESGGGLVQAGGSLRLSCAASGIIFYPNAMGWYRQAPGKERELVAAITSDGSTYYADSVKGRFTISRDNAMNTVYLQMNSLKPDDTAVYYCAAWDDYGYDYWGQGTQVTVSS | low polyreactivity |
| QVQLVESGGGLVQAGGSLRLSCAASGIIFGGYAMGWYRQAPGKERELVARITSGGSTNYADSVKGRFTISRDNAKNTVYLQMNSLKPEDTAVYYCNARGGWSWRFYYWGQGTQVTVSS | high polyreactivity |
| QVQLVESGGGLVQAGGSLRLSCAASGIIFSYYAMGWYRQAPGKERELVADISSDGSTNYADSVKGRFTISRDNAKNTVYLQMNSLKPEDTAVYYCAAGYVHYGWFELDYWGQGTQVTVSS | low polyreactivity |
| QVQLVESGGGLVHAGGSLRLSCAASGSIFTFYTMGWYRQAPGKERELVAAINWSGSRTYYADSVKGRFTISRDNAKNTVYLQMNSLKPEDTAVYYCAAYYYTGPTTVESDYWGQGTQVTVSS | high polyreactivity |
| QVQLVESGGGLVQAGGSLRLSCADSGLIFYRYAMGWYRQAPGTERELVAAISGSVGSTYADSVKGRFTISRDNAKNTVYLQMNSLKPEDTVVYYCSRETYRSYGAYDYWGLGTQVTVSS | low polyreactivity |
| QVQLVESGGGLVQAGGSLRLICAASGRTFWDYAMGWYRQAPGKERELVAAITASGTRTYYADSVKGRFTISRDNAKNTVFLQMNSLKPEDTAVYYCAAARIWWAHAYPTYVANDYWGQGTQVTVSS | high polyreactivity |
| QVQLVESGGGLVQAGGSLRLSCAASGFTVYGYTMGWYREAPGKERELVAAITSGDSTYYADSVKGRVTISRDIAQNTDYLQMHTLKPEETAVYYCATDWDVEYAWTEYYYWGQGTQVTVSS | high polyreactivity |
| QVQLVESGGGLVQAGGSLRLSCAASGSILSTYSMGCYRQAPGKERELVASISSNAGSTYYADSVKGRFTISRDNAKNTVYLQMNSLKPEDTAVYYCNKVYGGGTYDYWGQGTQVTVSS | low polyreactivity |
| QVQLVESGGGLVQAGGSLRLSCAASGRIIRSYAMVWYRQAPGKERELVAAISYSGGSTYYADSVKGRFTISRDNAKNTVYLQMNSLKPEDTAVYYCAALPGERKYIYYGYDYWGQGTQVTVSS | high polyreactivity |
| QVQLVESGGGLVQAGGSLRLSCAASGSIFKTYAMGWYRQAPGKERELVAAISRSTSRTYYADSVKGRFTISRDNAKNTVYLQMNSLKPEDTAVYYCAAHRSTRGTKLYYWGQGTQVTVSS | high polyreactivity |

| Sequence | polyreactivity (PSR sort gate) |
| --- | --- |
| QVQLVESGGGLVQAGGSLRLSCAASGFIFYRYAMGWYRQAPGKERELVATISWSGGRTYYADSVKGRFTISRDNAKNTVYLQMNSLKPEDTAVYYCNAVNTHDYGYWGQGTQVTVSS | low polyreactivity |
| QVQLVESGGGLVQAGGSLRLSCAASGSTFWRYAMGWYRQAPGKERELVAAITSSGDRTYYADSVKGRFTISRDNAKNTVYLQMNSLKPEDTAVYYCAAALWSSRGYYYAYYYWGQGTQVTVSS | high polyreactivity |
| QVQLVESGGGLVQAGGSLRLSCAASGNTFGLYAMGWYRQAPGKDRELVATITWSVSTYADSEKGRFTISRDNAKITVYLEMNSLKPEDTAVYFCAATTGPWYWRYVYWGQGTQVTVSS | high polyreactivity |
| QVQLQESGGGLVQAGGILRLSCAACGNIFPSAVMGWYRQALGKEREFVATINSGSNTYYADSVKGRFTISRDNAKNTVYLQMNSLKLEDTAVYYCAAYFKLQAWHTYWGQGTQVTVSS | low polyreactivity |
| QVQLVESGGGLVQAGGSLRLSCAASGFIFAWYAMGWYRQAPGKERELVADITSGGDTSYADSVKGRFTISLDNAKNTVYLQMNSLKPEDTAVYYCAAVWEPWNIRLVLTAVDYWGQGTQVTVSS | low polyreactivity |
| QVQLVESGGGLVQAGGSLRLSCAASGITFDNYAMGWYIQAPGKERELVAAITSGDGTYYADSVKWRFTISRDNAKITVYLQMNSLKPEDTAVYACAVQGSRTENYDWYYYGGQGTQVTVSS | low polyreactivity |
| QVQLVESGGGLVQAGGSLRLSCAASGRIFSSYTMGWYRQAPGKERELVATITLRGGRTYYADSVKGRFTISRDNAKNTVYLQMNSLKPEDTAVYYCAATYLTYYHRFNYWGQGTQVTVSS | high polyreactivity |
| QVQLVESGGGLVQAGGSLRISCAASGSTFYHNVMGWYRPAPGKERELVASIDTGDSTNYADSVKGRFTISLDNAKNTVYLQMNSLKPEDTAVYYCNADSYPALNKRGYDYWGQGTQVTVSA | low polyreactivity |
| QVQLVESGGGLVQAGGSLRLSCAASGSTFYVNTMGWYRQAPGKERELVAAISGSGGSTYYADSVKGRFTISRDNAKNTVYLQMNSLKPEDTAVHYCAARSRYGYITFDYWGQGTQVTVSS | high polyreactivity |
| QVQLVESGGGLVQAGGSLRLSCAASGRTFVYYAMGWYRQAPGKERELVAAITSGGSTNYADSVKGRFTISRDNAKNTVYLQMNSLKPEDTAVYYCNAYGVSWFYYTWKYDYWGQGTQVTVSS | low polyreactivity |
| QVQLEESGGGLVQAGGSLRLSCAASGSIFVYYAMGWYRQAPGKERELVAAISSSGTSTYYADSVKGRFTISRDNAKNTVYLQMNSLKPEDTAVYYCATTRRYAYRGGHNYWGQGTQVTVSS | high polyreactivity |
| QLQLVESGGGLVQAGGSLRLSCAASGSTFRWYAKGWYRQAPGKERELVAAISYSGGRTYYADSVKGRFTISRDTAKNTVYLQMNSLKPEDTAVYYCAADYVESKSLLEYWGQGTQVTVSS | low polyreactivity |
| QVQLVESGGGLVQAGGSLRLSCAASGFTFAKYAMGWYRQAPGKERELVAAISSNGGTTYYADSVKGRFTISRDNAKNTVYLQMNSLKPEDTAVYYCAVRSRVYPSRVKYDYWGQGTQVTVSS | high polyreactivity |
| QVQLVESGGGLVQAGGSLRLSCAASGSTLESYAMGWYRQAPGKERELVAAISKSGGRTYYADSVKGRFTISRDNAKNTLYLQMNSLKPEDTAVYYCAADSGTHLTYYWGQGTQVTVSS | high polyreactivity |
| QVQLVESGGGLVQAGGSLRLSCAASGFTFERNTMGWYRQAPGKERELVSTITRRGTSTYYADSVKGRFTISRDNAKNTVYLQMNSLKPEDTAVYYCAVYGYRTKYGYWGQGTQVTVSS | high polyreactivity |
| QVQLVESGGGLVQAGGSLRISCAASGFTFNANAMAWYRQAPGKERELVAAISLSGGRTYYADSVKRRFTISRDNAKNTVYLQMNSMKQVDTAVYYCAASPDGSFRRFSRVVSGDYWGQGTQVTVSS | high polyreactivity |
| QVQLVESGGGLDQAGGSLRLSCAASGSTFLTNAMGGYRQAPGKEMELVAVISLISGPTYYADSVKVRFTISRDNAKNTVYLQMNRLKPEDTAVYYSATDPYWNSPYVKYDYWGQGTQVTVSS | high polyreactivity |
| QVQLVESGRGLVQAGGSLRLSCASSGRIFTYTAMGWYRQAPWKDSELVARITSGGNTNYADSVKGRFTISRDNAKNTVYLPMNSLKPEDTAVYYSATGLYWFTNRYGCWGLGTQVTVSS | low polyreactivity |
| QVQLVESGGGLVQAGGSLRLSCAASGGIFLPNAMGWYRQAPGKERELVAAISTGGSTNYADSVKGRFTISRDTAKNTVYLQMNSLKPEDTAVYYCAATPYNYVGFSRGGDYWGQGTQVTVSS | low polyreactivity |
| QVQLVESGGGLVQAGGSLRLSCAASGIIFYDYAMGWYRQAPGKERELVASISWSSGSTYYADSVKGRFTISRDNAKNTVYLQMNSLKPEDTAVYYCAADGYPLQLYNYWGQGTQVTVSS | low polyreactivity |
